Literature values in paper PMC4507496.
Read-outs that look alike come from different tables or passages of the source.

How the values were obtained:
ATG7 (Homo sapiens) [1] = biological target: ATG7 (Homo sapiens) (UniProt O95352); details: cited from earlier work
ATG7 (Homo sapiens) [2] = biological target: ATG7 (Homo sapiens) (UniProt O95352); details: cited from earlier work; remark: listed apart in the source

Sequence of ATG7 (Homo sapiens) (O95352 2-703): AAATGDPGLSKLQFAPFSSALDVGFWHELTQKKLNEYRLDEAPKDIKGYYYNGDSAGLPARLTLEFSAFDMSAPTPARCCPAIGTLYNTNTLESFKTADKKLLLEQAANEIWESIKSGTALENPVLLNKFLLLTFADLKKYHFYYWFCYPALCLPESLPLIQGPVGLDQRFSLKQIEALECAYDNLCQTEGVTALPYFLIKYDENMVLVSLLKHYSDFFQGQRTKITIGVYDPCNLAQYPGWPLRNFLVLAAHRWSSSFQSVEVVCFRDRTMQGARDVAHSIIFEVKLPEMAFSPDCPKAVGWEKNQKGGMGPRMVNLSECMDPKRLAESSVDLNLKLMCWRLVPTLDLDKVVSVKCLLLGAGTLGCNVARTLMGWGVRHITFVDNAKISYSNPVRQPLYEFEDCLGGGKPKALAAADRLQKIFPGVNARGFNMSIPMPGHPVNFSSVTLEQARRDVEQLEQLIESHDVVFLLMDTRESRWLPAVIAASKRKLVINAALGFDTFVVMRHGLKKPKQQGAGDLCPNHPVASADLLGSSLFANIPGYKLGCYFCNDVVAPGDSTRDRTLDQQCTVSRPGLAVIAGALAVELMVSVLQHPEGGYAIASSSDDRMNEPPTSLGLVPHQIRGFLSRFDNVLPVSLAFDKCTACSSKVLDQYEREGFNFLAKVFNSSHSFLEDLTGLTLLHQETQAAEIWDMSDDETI
Sequence of ATG3 (Q9NT62 whole entry): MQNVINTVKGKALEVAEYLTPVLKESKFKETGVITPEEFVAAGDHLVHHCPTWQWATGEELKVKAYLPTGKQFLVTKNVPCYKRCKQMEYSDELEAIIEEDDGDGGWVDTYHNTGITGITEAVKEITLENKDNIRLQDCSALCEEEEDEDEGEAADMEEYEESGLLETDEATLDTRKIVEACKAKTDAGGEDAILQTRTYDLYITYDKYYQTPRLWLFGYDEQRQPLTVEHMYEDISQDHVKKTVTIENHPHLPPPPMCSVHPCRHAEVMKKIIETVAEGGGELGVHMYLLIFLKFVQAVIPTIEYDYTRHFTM
Sequence of ATG3 flexible region flexible region (Q9NT62 90-190): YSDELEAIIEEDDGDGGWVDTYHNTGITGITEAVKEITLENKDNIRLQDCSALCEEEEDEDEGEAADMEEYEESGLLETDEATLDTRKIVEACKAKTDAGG

Substance | Kd (ATG7 (Homo sapiens) [1]) [nM] | Kd (ATG7 (Homo sapiens) [2]) [nM]
ATG3 (from UniProt Q9NT62) | 2200 | 
ATG3 flexible region flexible region (from UniProt Q9NT62) |  | > 70000
